Results published in publication PMC6479498 (Molecules, 2019).

What was measured:
[1] = target: T1, AT-ATA (WT-AT), (R)-selective amine transaminase (Aspergillus terreus, UniProt Q0C8G1); assay: acetophenone formation at […] nm; format: biochemical; details: 2.5 mM (R)-α-MBA, 0.1 mM PLP, 0.25% DMSO, 50 mM sodium phosphate pH 8.0; read-out: Km^pyruvate
T1 construct: gene ATEG_10023
T1 sequence (Q0C8G1 1-325): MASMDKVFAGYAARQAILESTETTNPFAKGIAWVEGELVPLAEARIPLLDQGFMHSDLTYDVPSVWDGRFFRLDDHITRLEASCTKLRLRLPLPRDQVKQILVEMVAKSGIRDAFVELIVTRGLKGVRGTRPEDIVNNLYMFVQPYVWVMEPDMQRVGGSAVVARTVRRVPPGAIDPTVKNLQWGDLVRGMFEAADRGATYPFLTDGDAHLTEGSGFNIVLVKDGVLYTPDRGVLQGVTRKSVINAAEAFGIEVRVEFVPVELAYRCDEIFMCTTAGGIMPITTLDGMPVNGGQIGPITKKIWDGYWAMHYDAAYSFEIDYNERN

C[C@@H](N)c1ccccc1 = assay: purified protein; format: biochemical, Aspergillus terreus; details: 2.5 mM pyruvate, 0.1 mM PLP, 0.25% DMSO, 50 mM sodium phosphate pH 8.0
CC(=O)C(=O)O = assay: purified protein; format: biochemical, Aspergillus terreus; details: 2.5 mM (R)-α-MBA, 0.1 mM PLP, 0.25% DMSO, 50 mM sodium phosphate pH 8.0

Compound	Km [1]	Km (C[C@@H](N)c1ccccc1)	kcat (C[C@@H](N)c1ccccc1)	kcat/Km (C[C@@H](N)c1ccccc1)	Km (CC(=O)C(=O)O)	kcat (CC(=O)C(=O)O)	kcat/Km (CC(=O)C(=O)O)
CC(=O)C(=O)O [pyruvate]	230 ± 20 µM						
AT-ATA (WT-AT), (R)-selective amine transaminase (Aspergillus terreus NIH2624; L118A)		180 ± 10 µM	1.46 ± 0.01 s⁻¹	7930 M⁻¹ s⁻¹	360 ± 50 µM	1.48 ± 0.05 s⁻¹	4150 M⁻¹ s⁻¹
AT-ATA (WT-AT), (R)-selective amine transaminase (Aspergillus terreus NIH2624; L118I)		130 ± 10 µM	0.82 ± 0.01 s⁻¹	6400 M⁻¹ s⁻¹	280 ± 20 µM	0.82 ± 0.01 s⁻¹	2950 M⁻¹ s⁻¹
AT-ATA (WT-AT), (R)-selective amine transaminase (Aspergillus terreus NIH2624; L118T)		180 ± 10 µM	1.79 ± 0.02 s⁻¹	9980 M⁻¹ s⁻¹	400 ± 20 µM		
AT-ATA (WT-AT), (R)-selective amine transaminase (Aspergillus terreus NIH2624; L118V)		160 ± 10 µM	0.57 ± 0.01 s⁻¹	3570 M⁻¹ s⁻¹	290 ± 20 µM	0.51 ± 0.01 s⁻¹	1760 M⁻¹ s⁻¹
